B1: miR-124 guide + 16-bp target (dsRNA)
RNA 1: UAAGGCACGCGGUGAAUGCCAA
RNA 2: GGGAACAACAACAACAACAACAACAACAACAAAAUUUUUUCACCGCGUGCCUUAAACAACAACAACAACA
modifications: guide 5' phosphate
B2: miR-196a guide + perfect target (dsRNA)
RNA 1: UAGGUAGUUUCAUGUUGUUGGG
RNA 2: GGGAACAACAACAACAACAACAACAACAACAACCCAACAACAUGAAACUACCUAAACAACAACAACAACA
modifications: guide 5' phosphate

Assays:
AGO2 D669A [1] = target: T1, AGO2 D669A (UniProt Q9UKV8 1-859, D669A); assay: hydroxyl-radical footprinting; elevated reactivity at 9-11; Footprinting: 18 mM HEPES pH 7.4, 100 mM KOAc, 1.2 mM Mg(OAc)2, 0.015 mg/mL BSA, 0.0015 mg/mL yeast tRNA, 0.01% IGEPAL, 8.75 mM DTT, 37 C; filter binding (titra); conditions: protein: recombinant; tags: N-terminal 3xFLAG; label: 32P 5' end of guide; complementary up to guide position 16
AGO2 D669A [2] = target: T1, AGO2 D669A; assay: hydroxyl-radical footprinting; peaks at 9-11; same at 1, 4 and 15 min; Footprinting: 18 mM HEPES pH 7.4, 100 mM KOAc, 1.2 mM Mg(OAc)2, 0.015 mg/mL BSA, 0.0015 mg/mL yeast tRNA, 0.01% IGEPAL, 8.75 mM DTT, 37 C; filter binding (titra); conditions: protein: recombinant; tags: N-terminal 3xFLAG; label: 32P 5' end of guide; guide paired to internal site of longer target

T1 sequence (Q9UKV8 whole entry D669A): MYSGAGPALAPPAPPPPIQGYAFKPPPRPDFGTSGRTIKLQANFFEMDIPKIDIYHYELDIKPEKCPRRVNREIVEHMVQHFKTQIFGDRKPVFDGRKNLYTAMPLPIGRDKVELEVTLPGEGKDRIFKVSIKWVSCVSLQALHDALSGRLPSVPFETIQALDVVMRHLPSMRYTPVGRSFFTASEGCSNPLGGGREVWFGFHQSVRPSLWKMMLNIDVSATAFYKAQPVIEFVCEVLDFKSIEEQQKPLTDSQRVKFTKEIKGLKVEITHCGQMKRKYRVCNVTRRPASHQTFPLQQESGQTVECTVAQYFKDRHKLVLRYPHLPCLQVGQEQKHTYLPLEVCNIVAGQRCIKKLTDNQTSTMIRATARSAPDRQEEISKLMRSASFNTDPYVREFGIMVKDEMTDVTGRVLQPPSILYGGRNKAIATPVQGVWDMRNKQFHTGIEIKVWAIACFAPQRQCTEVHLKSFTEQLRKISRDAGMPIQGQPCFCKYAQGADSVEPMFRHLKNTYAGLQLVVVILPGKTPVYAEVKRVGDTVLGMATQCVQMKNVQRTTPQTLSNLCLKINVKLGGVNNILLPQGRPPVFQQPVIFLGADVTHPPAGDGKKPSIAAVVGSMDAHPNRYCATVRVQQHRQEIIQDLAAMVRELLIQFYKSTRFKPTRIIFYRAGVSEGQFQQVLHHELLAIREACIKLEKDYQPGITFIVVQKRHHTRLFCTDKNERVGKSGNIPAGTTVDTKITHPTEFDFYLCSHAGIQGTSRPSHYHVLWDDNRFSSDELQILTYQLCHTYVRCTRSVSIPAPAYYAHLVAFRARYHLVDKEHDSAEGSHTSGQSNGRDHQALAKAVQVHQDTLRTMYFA

Row | Binder | binding result (AGO2 D669A [1]) | binding result (AGO2 D669A [2])
1 | B1 | binds | 
2 | B2 |  | binds
